Reference: publication PMC9014129
Each block holds one molecule with its values, some of them ahead of it.

Target: CK2β^1–193-DBCO-Sulfo-Cy5 (human) (UniProt P67870)
Experiment: other fluorescence titration; quenching of the fluorescence of 30 nM CK2β^1–193-DBCO-Sulfo-Cy5 by 0.3 nM to 5 µM CK2α variant; Monolith NT.115, mode initial fluorescence; 25°C; 500 mM NaCl, 25 mM TRIS/HCl, pH 8.5, 0.05% Tween 20

Kd: 13.6 nM
Molecule: human CK2α (from UniProt P68400 1-391) (enzyme)

Kd: 6.2 nM
B1: human CK2α^Lys198Arg (enzyme)
chain: MSGPVPSRARVYTDVNTHRPREYWDYESHVVEWGNQDDYQLVRKLGRGKYSEVFEAINITNNEKVVVKILKPVKKKKIKREIKILENLRGGPNIITLADIVKDPVSRTPALVFEHVNNTDFKQLYQTLTDYDIRFYMYEILKALDYCHSMGIMHRDVKPHNVMIDHEHRKLRLIDWGLAEFYHPGQEYNVRVASRYFRGPELLVDYQMYDYSLDMWSLGCMLASMIFRKEPFFHGHDNYDQLVRIAKVLGTEDLYDYIDKYNIELDPRFNDILGRHSRKRWERFVHSENQHLVSPEALDFLDKLLRYDHQSRLTAREAMEHPYFYTVVKDQARMGSSSMPGGSTPVSSANMMSGISSVPTPSPLGPLAGSPVIAAANPLGMPVPAAAGAQQ
